The text below walks through data of patent US7070776.

For assay [1], the target named is B7 antigen (human) (UniProt P33681). The assay is described as follows: direct immunofluorescence flow cytometry, Jijoye cells. (In general: In flow cytometry, cells or beads pass a laser one at a time.)
Assay [2] has the same target. Briefly: direct immunofluorescence flow cytometry, T51 B-lymphoblastoid cells, no unlabeled BB-1.
Assay [3] has the same target. Briefly: cell-based or functional assay.
Assay [4] has the same target. Briefly: direct immunofluorescence flow cytometry, T51 cells, after preincubation with unlabeled (cold) BB-1.
Assay [5] shares this target. Briefly: direct immunofluorescence flow cytometry, Daudi Burkitt's lymphoma cells, no unlabeled BB-1.
The target is the same in assay [6]. The assay is described as follows: direct immunofluorescence flow cytometry, Jijoye cells, after preincubation with unlabeled (cold) BB-1.
Assay [7] shares this target. The assay is described as follows: direct immunofluorescence flow cytometry, 5E1 cells.
The target is the same in assay [8]. Briefly: direct immunofluorescence flow cytometry, Raji cells.
Assay [9] has the same target. Briefly: direct immunofluorescence flow cytometry, Daudi cells, after preincubation with unlabeled (cold) BB-1.
Assay [10] shares this target. The assay is described as follows: direct immunofluorescence flow cytometry, Raji Burkitt's lymphoma cells, no unlabeled BB-1.
Assay [11] shares this target. Briefly: direct immunofluorescence flow cytometry, Raji cells, after preincubation with unlabeled (cold) BB-1.
For assay [12] the target is unchanged. The assay is described as follows: direct immunofluorescence flow cytometry, Daudi cells.
For assay [13] the target is unchanged. The assay is described as follows: direct immunofluorescence flow cytometry, Jijoye Burkitt's lymphoma cells, no unlabeled BB-1.
Assay [14] shares this target. Briefly: direct immunofluorescence flow cytometry, 5E1 B-lymphoblastoid cells, no unlabeled BB-1.
The target is the same in assay [15]. The assay is described as follows: direct immunofluorescence flow cytometry, T51 cells.
The target is the same in assay [16]. The assay is described as follows: direct immunofluorescence flow cytometry, 5E1 cells, after preincubation with unlabeled (cold) BB-1.
The target of another assay is CD28 receptor (human) (UniProt P10747). The assay is described as follows: cell-based or functional assay.

B7 antigen (human), sequence (P33681 35-288): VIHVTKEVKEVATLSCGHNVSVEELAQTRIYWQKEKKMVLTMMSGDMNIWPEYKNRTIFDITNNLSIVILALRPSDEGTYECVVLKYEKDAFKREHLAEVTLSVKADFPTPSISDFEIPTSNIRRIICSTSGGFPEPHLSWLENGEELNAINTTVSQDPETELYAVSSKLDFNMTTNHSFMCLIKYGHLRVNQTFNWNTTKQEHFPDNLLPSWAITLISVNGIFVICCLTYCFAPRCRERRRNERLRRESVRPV

Turning to mAb BB-1 (anti-B7) (antibody), the SPECIFIC BINDING (mean fluorescence, -cold minus +cold) with B7 antigen (human) [1] amounted to 15 linear units; in the assay with B7 antigen (human) [7] it was 10.6 linear units; in the assay with B7 antigen (human) [8] it was 4.3 linear units; with B7 antigen (human) [12], 3.6 linear units; in the assay with B7 antigen (human) [15] it was 13.4 linear units. Moreover, the mean fluorescence (linear units), FITC-BB-1 -COLD is 16.4 linear units in the assay with B7 antigen (human) [2]; 6.4 linear units with B7 antigen (human) [5]; 7.1 linear units with B7 antigen (human) [10]; 17.8 linear units with B7 antigen (human) [13]; 13 linear units in the assay with B7 antigen (human) [14]. The [^3H]-T incorporation of PHA blasts stimulated with B7+ CHO (40:1), BB-1 at 10 µg/ml with B7 antigen (human) [3] was 98300 cpm. In addition, the blocking of adhesion of Jijoye cells to CD28+ CHO cells, 10 mM EDTA with B7 antigen (human) [3] came to 60%. Besides, the mean fluorescence (linear units), FITC-BB-1 +COLD in the assay with B7 antigen (human) [4] came out at 3 linear units; in the assay with B7 antigen (human) [6] it was 2.8 linear units; with B7 antigen (human) [9] it was 2.8 linear units; in the assay with B7 antigen (human) [11], 2.8 linear units; with B7 antigen (human) [16], 2.4 linear units.

On to “monoclonal antibody (mAb) 9.3 (anti-CD28)”, for which, in the assay with CD28 receptor (human), the [^3H]-T incorporation of PBL, +Anti-CD3, mAb 9.3 (immob.), Exp. 1 came to 137000 cpm; the [^3H]-T incorporation of PBL, +Anti-CD3, mAb 9.3 (soln.), Exp. 1 was 156000 cpm; the [^3H]-T incorporation of PBL, +Anti-CD3, mAb 9.3 (soln.), Exp. 2 is 75800 cpm; the [^3H]-T incorporation of PBL, -Anti-CD3, mAb 9.3 (immob.), Exp. 1 was found to be 100 cpm. Further, in the assay with CD28 receptor (human), the [^3H]-T incorporation of PBL, -Anti-CD3, mAb 9.3 (soln.), Exp. 1 came out at 300 cpm; the [^3H]-T incorporation of PBL, -Anti-CD3, mAb 9.3 (soln.), Exp. 2 came out at 400 cpm; the blocking of adhesion of B7 transfected COS cells to CD28+ CHO cells, EDTA omitted was 40%; the half-maximal inhibition of CD28-mediated adhesion (PM cells to CD28+ CHO) turned out to be 10 nM. In addition, in the assay with CD28 receptor (human), the reduction of T51 cell adhesion to CD28+ CHO cells by mAb 9.3 alone (no EDTA) was determined as 62% and the reduction of T51 cell adhesion to CD28+ CHO cells by mAb 9.3 plus EDTA worked out at 93%.

mAb 9.3 (Fab fragments): the [^3H]-T incorporation of PHA blasts stimulated with B7+ CHO (40:1), 9.3 Fab at 10 µg/ml with CD28 receptor (human) was determined as 132000 cpm.
